Laboratory results from PMC4507496 (Biochemical and biophysical research communications, 2015).

Target: T1, ATG7 W243A (human, UniProt O95352 1-703, W243A)
T1 sequence (looked up): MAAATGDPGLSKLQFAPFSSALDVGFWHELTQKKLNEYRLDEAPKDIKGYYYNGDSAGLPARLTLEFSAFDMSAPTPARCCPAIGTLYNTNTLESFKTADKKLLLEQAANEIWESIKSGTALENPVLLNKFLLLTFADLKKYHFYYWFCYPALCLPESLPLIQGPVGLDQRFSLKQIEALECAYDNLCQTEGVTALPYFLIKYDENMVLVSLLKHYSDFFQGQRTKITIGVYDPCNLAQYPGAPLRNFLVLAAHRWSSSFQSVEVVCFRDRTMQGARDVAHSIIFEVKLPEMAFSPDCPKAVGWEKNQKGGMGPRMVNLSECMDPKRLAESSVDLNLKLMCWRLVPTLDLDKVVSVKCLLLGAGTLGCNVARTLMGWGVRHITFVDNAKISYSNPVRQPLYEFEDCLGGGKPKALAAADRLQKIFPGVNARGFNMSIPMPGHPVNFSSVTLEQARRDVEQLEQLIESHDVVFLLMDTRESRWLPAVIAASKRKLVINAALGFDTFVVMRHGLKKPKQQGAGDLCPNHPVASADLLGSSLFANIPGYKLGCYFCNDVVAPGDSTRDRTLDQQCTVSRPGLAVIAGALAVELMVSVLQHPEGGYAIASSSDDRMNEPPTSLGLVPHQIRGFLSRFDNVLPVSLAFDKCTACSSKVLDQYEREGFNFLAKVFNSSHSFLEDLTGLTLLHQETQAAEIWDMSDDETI
Experiment: pull-down

binding result: binds
B1: GST-ATG3 (enzyme)
chain: not shown
